The Kd is a measure of binding affinity in units of concentration.

Test [1] concerns the target α2M receptor on peritoneal macrophages of C57BL/6 mice (mouse) (UniProt Q91ZX7). Briefly: saturation binding of 125I-labeled ligand (0.23-60 nM) to mouse peritoneal macrophages at 4 °C for 16 h; one-site fit; concentration based on the mixture of slow and fast forms.
Test [2] has the same target. Briefly: saturation binding of 125I-labeled ligand (0.23-60 nM) to mouse peritoneal macrophages at 4 °C for 16 h; one-site fit.

Take “α2M*-lysozyme complex formed by incubation at 50° C. (5 h), radio-iodinated with Na125I (from UniProt P01023 24-1474; P00698 19-147)”: in test [1], the Kd worked out at 8 nM.

B1: α2-macroglobulin* (NH3-treated, thiol ester-cleaved human α2-macroglobulin) (protein, UniProt P01023 24-1474, looked up)
chain: SVSGKPQYMVLVPSLLHTETTEKGCVLLSYLNETVTVSASLESVRGNRSLFTDLEAENDVLHCVAFAVPKSSSNEEVMFLTVQVKGPTQEFKKRTTVMVKNEDSLVFVQTDKSIYKPGQTVKFRVVSMDENFHPLNELIPLVYIQDPKGNRIAQWQSFQLEGGLKQFSFPLSSEPFQGSYKVVVQKKSGGRTEHPFTVEEFVLPKFEVQVTVPKIITILEEEMNVSVCGLYTYGKPVPGHVTVSICRKYSDASDCHGEDSQAFCEKFSGQLNSHGCFYQQVKTKVFQLKRKEYEMKLHTEAQIQEEGTVVELTGRQSSEITRTITKLSFVKVDSHFRQGIPFFGQVRLVDGKGVPIPNKVIFIRGNEANYYSNATTDEHGLVQFSINTTNVMGTSLTVRVNYKDRSPCYGYQWVSEEHEEAHHTAYLVFSPSKSFVHLEPMSHELPCGHTQTVQAHYILNGGTLLGLKKLSFYYLIMAKGGIVRTGTHGLLVKQEDMKGHFSISIPVKSDIAPVARLLIYAVLPTGDVIGDSAKYDVENCLANKVDLSFSPSQSLPASHAHLRVTAAPQSVCALRAVDQSVLLMKPDAELSASSVYNLLPEKDLTGFPGPLNDQDNEDCINRHNVYINGITYTPVSSTNEKDMYSFLEDMGLKAFTNSKIRKPKMCPQLQQYEMHGPEGLRVGFYESDVMGRGHARLVHVEEPHTETVRKYFPETWIWDLVVVNSAGVAEVGVTVPDTITEWKAGAFCLSEDAGLGISSTASLRAFQPFFVELTMPYSVIRGEAFTLKATVLNYLPKCIRVSVQLEASPAFLAVPVEKEQAPHCICANGRQTVSWAVTPKSLGNVNFTVSAEALESQELCGTEVPSVPEHGRKDTVIKPLLVEPEGLEKETTFNSLLCPSGGEVSEELSLKLPPNVVEESARASVSVLGDILGSAMQNTQNLLQMPYGCGEQNMVLFAPNIYVLDYLNETQQLTPEIKSKAIGYLNTGYQRQLNYKHYDGSYSTFGERYGRNQGNTWLTAFVLKTFAQARAYIFIDEAHITQALIWLSQRQKDNGCFRSSGSLLNNAIKGGVEDEVTLSAYITIALLEIPLTVTHPVVRNALFCLESAWKTAQEGDHGSHVYTKALLAYAFALAGNQDKRKEVLKSLNEEAVKKDNSVHWERPQKPKAPVGHFYEPQAPSAEVEMTSYVLLAYLTAQPAPTSEDLTSATNIVKWITKQQNAQGGFSSTQDTVVALHALSKYGAATFTRTGKAAQVTIQSSGTFSSKFQVDNNNRLLLQQVSLPELPGEYSMKVTGEGCVYLQTSLKYNILPEKEEFPFALGVQTLPQTCDEPKAHTSFQISLSVSYTGSRSASNMAIVDVKMVSGFIPLKPTVKMLERSNHVSRTEVSSNHVLIYLDKVSNQTLSLFFTVLQDVPVRDLKPAIVKVYDYYETDEFAIAEYNAPCSKDLGNA
modifications: thiol ester cleaved by NH3: free Cys949, Gln952 modified with -NH2; bait region intact; radio-iodinated with Na125I in the macrophage binding study
As for B1, the Kd in test [2] came out at 5 nM.

For the origin of these results see patent publication US20020127232A1.
